Experimental data taken from article doi:10.1101/2025.02.22.639629 (bioRxiv, 2025).
Positions count from the first letter of the chain named. Numbers in names are those of the source.

B1: mature IL-37 (Lys53 N-terminus) (ligand, human, UniProt Q9NZH6 53-218, looked up)
chain: KNLNPKKFSIHDQDHKVLVLDSGNLIAVPDKNYIRPEIFFALASSLSSASAEKGSPILLGVSKGEFCLYCDKDKGQSHPSLQLKKEKLMKLAAQKESARRPFIFYRAQVGSWNMLESAAHPGWFICTSCNCNEPVGVTDKFENRKHIEFSFQPVCKAEMSPSEVSD
B2: IL-37 R158A (ligand, human, UniProt Q9NZH6 53-218, looked up)
chain: B1 chain with R106A

Biological target: the molecule itself
Assay: SEC-MALS

Protein	stoichiometry N
B1	2
B2	2
